Molecular target: T1, Flag-tagged N-terminal domain of TET2 (residues 1–1127) (human, UniProt Q6N021 1-1127)
T1 sequence: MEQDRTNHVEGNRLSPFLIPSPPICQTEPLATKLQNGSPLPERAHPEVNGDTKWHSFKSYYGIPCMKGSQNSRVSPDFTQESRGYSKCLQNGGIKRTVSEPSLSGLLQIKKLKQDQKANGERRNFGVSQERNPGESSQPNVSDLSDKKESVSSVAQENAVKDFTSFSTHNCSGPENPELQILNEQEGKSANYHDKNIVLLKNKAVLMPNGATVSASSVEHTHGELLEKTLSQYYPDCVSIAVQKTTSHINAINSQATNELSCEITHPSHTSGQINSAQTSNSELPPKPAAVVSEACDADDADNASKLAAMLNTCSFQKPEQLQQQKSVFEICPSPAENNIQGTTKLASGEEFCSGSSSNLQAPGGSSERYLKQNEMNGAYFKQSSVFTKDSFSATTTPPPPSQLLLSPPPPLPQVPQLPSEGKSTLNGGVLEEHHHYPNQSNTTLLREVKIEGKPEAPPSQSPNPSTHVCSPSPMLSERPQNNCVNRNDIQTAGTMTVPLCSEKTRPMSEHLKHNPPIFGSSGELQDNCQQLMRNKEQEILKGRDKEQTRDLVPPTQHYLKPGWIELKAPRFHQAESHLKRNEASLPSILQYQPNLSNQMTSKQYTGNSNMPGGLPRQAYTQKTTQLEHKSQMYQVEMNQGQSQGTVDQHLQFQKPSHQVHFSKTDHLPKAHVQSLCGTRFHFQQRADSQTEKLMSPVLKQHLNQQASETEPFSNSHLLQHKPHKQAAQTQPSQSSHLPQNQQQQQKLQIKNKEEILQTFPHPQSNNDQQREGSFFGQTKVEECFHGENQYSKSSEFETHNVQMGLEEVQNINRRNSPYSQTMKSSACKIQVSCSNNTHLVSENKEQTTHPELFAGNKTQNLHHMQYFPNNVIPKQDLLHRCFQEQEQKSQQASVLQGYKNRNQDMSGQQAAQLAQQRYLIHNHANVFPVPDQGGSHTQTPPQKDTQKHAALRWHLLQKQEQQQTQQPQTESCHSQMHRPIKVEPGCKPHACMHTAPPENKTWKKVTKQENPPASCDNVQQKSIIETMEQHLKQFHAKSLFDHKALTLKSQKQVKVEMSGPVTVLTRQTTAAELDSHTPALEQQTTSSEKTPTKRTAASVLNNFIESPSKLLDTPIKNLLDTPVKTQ
Assay: pull-down

binding result: binds
B1: SNIP1 purified from E. coli (GST tag removed) (natural protein)
chain: MKAVKSERERGSRRRHRDGDVVLPAGVVVKQERLSPEVAPPAHRRPDHSGGSPSPPTSEPARSGHRGNRARGVSRSPPKKKNKASGRRSKSPRSKRNRSPHHSTVKVKQEREDHPRRGREDRQHREPSEQEHRRARNSDRDRHRGHSHQRRTSNERPGSGQGQGRDRDTQNLQAQEEEREFYNARRREHRQRNDVGGGGSESQELVPRPGGNNKEKEVPAKEKPSFELSGALLEDTNTFRGVVIKYSEPPEARIPKKRWRLYPFKNDEVLPVMYIHRQSAYLLGRHRRIADIPIDHPSCSKQHAVFQYRLVEYTRADGTVGRRVKPYIIDLGSGNGTFLNNKRIEPQRYYELKEKDVLKFGFSSREYVLLHESSDTSEIDRKDDEDEEEEEEVSDS

Source: PMC6317994 (Cell reports, 2018)
